According to paper PMC6684798, “Structural basis for the target specificity of actin histidine methyltransferase SETD3” (Nature Communications, 2019):
Like-named read-outs stand apart in the source and are kept apart here. One block for each compound: values may come before it.

What was measured:
SETD3 = target: T1, SETD3 (Homo sapiens, UniProt Q86TU7); experiment: Ki measurement of sinefungin against SAM for SETD3 (Supplementary Fig. 2a, b); assay type: biochemical
T1 construct: GST (cleaved yes); made in house; host or cells: Escherichia coli BL21(DE3) CodonPlus
T1 sequence (Q86TU7 1-594): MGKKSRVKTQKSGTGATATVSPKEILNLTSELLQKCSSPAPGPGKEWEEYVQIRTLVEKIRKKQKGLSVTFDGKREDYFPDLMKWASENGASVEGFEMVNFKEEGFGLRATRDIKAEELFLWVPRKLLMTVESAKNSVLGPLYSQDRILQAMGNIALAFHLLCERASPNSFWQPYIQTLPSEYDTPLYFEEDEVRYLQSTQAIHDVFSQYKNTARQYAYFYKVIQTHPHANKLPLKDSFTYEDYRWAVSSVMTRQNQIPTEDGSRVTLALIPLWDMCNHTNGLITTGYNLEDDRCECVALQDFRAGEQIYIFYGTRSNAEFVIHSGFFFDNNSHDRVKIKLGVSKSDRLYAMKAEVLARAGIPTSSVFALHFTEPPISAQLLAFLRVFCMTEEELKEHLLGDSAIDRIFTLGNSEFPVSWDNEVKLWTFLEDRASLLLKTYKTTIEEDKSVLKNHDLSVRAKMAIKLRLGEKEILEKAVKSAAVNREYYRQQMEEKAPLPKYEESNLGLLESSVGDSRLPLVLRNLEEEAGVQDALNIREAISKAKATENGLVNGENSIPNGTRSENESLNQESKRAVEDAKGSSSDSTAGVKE
Experimental: Recombinant human SETD3 (pXC2003) was expressed as a GST-fusion[22] in Escherichia coli BL21(DE3) CodonPlus^TM cells (Stratagene). The SETD3 mutants at residue 255 (N255A; pXC2093 and N255V; pXC2094) were generated with Q5 Site-Directed Mutagenesis Kit (New England Biolabs), confirmed by sequencing and the same protocol for expression and purification were followed. Briefly, the purification was conducted in a BIO-RAD NGC^TM system using a three-column chromatography of glutathione-sepharose, HiTrap Q-HP and Superdex 200. The GST tag was removed by PreScisson Protease (purified in-house). The purified SETD3 proteins at a concentration ~25–35 mg/ml were kept at −80 °C in storage buffer for future use [20 mM Tris (pH 8.0), 200 mM NaCl, 5% glycerol, and 0.5 mM tris (2-carboxyethyl) phosphine (TCEP)].
For Ki measurement of sinefungin (Supplementary Fig. 2a, b), a reaction mixture contained 20 mM Tris/HCl (pH 8.0), 50 mM NaCl, 0.1 mg/ml BSA, 1 mM DTT, 0.18 µM SETD3, 40 µM H73 (residues 66–80) peptide and first incubated with varied concentration of sinefungin (0–100 µM) for 30 min, reactions were then started by addition of 2–8 µM SAM. After 30 min at room temperature, the reactions were terminated by the addition of TFA to 0.1% (v/v). […]

[1] = target: Recombinant human SETD3 (pXC2003), wild type (human) (UniProt Q86TU7)
[2] = target: Recombinant human SETD3 (pXC2003), wild type (human) (UniProt Q86TU7); remark: listed apart in the source

mode of inhibition of SETD3 (SETD3; Lineweaver-Burk, H73(66–80) 40 µM, 0–100 µM sinefungin, 2–8 µM SAM, pH 8.0): SAM-competitive inhibitor
Compound: Nc1ncnc2c1ncn2[C@@H]1O[C@H](C[C@@H](N)CC[C@H](N)C(=O)O)[C@@H](O)[C@H]1O [sinefungin, adenosyl ornithine]
support of methyl transfer / inhibition (SETD3; Supplementary Fig. 2): does not support the methyl transfer, and thus functions as an inhibitor

Km of steady-state methylation kinetics (MTase-Glo), pH 10.5, 37 °C [1]: 5.2 μM
Compound: actin H73K peptide (residues 66-88) (from UniProt P60709 66-88)

Km of steady-state methylation kinetics (MTase-Glo), pH 10.5, 37 °C [2]: 430 μM
Compound: actin H73K peptide (residues 66-80) (from UniProt P60709 66-80)

Km of steady-state methylation kinetics (MTase-Glo), pH 8.0, room temperature [2]: 21 μM
Compound: actin H73 peptide (residues 66-80) (from UniProt P60709 66-80)
